{
  "source": "paper PMC7854685",
  "about": "“Histone Parylation factor 1 contributes to the inhibition of PARP1 by cancer drugs” (Nature Communications, 2021)",
  "molecules": {"B1": {"name": "HPF1: Histone PARylation factor, protein that binds PARP1 and PARP2 and provides the catalytic base Glu284 (protein)", "chain": "LRKEVENHYKLSLPEDFYHFWKFCEELDPEKPSDSLSASLGLQLVGPYDILAGKHKTKKKSTGLNFNLHWRFYYDPPEFQTIIIGDNKTQYHMGYFRDSPDEFPVYVGINEAKKNCIIVPNGDNVFAAVKLFLTKKLREITDKKKINLLKNIDEKLTEAARELGYSLEQRTVKMKQRDKKVVTKTFHGAGLVVPVDKNDVGYRELPETDADLKRICKTIVEAASDEERLKAFAPIQEMMTFVQFANDECDYGMGLELGMDLFCYGSHYFHKVAGQLLPLAYNLLKRNLFAEIIEEHLANRSQENIDQLAA", "modifications": "Alexa647 C2 maleimide label (extent of labeling typically 50-100%); left off: His tag (inferred from the nickel affinity column), end not stated, state not stated"}, "B2": {"name": "F280A mutant of HPF1: F280A mutant of HPF1 (protein)", "chain": "LRKEVENHYKLSLPEDFYHFWKFCEELDPEKPSDSLSASLGLQLVGPYDILAGKHKTKKKSTGLNFNLHWRFYYDPPEFQTIIIGDNKTQYHMGYFRDSPDEFPVYVGINEAKKNCIIVPNGDNVFAAVKLFLTKKLREITDKKKINLLKNIDEKLTEAARELGYSLEQRTVKMKQRDKKVVTKTFHGAGLVVPVDKNDVGYRELPETDADLKRICKTIVEAASDEERLKAFAPIQEMMTFVQAANDECDYGMGLELGMDLFCYGSHYFHKVAGQLLPLAYNLLKRNLFAEIIEEHLANRSQENIDQLAA"}},
  "key": {"PARP1": {"target": "T1, PARP1 (Homo sapiens, UniProt P09874)", "T1 construct": "Wild-type PARP1 and PARP2 were expressed and purified as previously described; made in house", "T1 sequence (P09874 whole entry)": "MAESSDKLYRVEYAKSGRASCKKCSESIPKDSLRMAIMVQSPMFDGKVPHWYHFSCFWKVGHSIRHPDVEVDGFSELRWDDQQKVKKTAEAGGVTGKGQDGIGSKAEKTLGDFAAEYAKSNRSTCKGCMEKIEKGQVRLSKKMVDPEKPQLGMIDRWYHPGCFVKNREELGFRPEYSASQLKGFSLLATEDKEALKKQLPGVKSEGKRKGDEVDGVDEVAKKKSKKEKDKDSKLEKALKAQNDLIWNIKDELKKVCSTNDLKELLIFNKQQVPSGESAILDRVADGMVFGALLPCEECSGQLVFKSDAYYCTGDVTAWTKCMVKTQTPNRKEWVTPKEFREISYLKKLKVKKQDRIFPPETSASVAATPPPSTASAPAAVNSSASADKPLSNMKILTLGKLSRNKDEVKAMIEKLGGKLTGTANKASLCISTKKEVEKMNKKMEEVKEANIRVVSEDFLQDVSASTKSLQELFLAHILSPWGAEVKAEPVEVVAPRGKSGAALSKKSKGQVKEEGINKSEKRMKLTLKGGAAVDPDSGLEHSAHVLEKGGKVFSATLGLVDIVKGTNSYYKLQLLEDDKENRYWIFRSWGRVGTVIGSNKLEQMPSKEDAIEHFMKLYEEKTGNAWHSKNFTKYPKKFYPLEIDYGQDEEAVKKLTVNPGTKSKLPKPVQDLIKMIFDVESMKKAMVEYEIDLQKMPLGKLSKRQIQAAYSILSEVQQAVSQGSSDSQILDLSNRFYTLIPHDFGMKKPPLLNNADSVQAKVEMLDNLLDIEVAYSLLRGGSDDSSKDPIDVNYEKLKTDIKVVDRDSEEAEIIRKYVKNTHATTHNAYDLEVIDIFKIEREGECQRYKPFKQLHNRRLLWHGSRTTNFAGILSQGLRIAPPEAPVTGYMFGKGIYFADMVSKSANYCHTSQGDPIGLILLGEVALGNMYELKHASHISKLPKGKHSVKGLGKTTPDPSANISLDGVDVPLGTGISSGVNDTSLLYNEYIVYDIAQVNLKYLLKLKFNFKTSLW", "experiment": "Rate of autoPARylation k2[NAD+] (DNA release without PARPi) in presence or absence of HPF1", "type": "biochemical", "experimental": "(§1) Next, 10 µL of PARP1 or PARP2 (10 nM) premixed with fluorescein labeled p18mer DNA (5 nM), was added to the various dilutions of PARPi and then incubated for 30 min to ensure complete association. Dissociation of labeled DNA was initiated by addition of 10 µL of NAD^+ (2 mM). All concentrations cited are final concentrations in a volume of 30 µL. […] Kinetic data for a range of different PARPi (20–500 nM) were exported to Prism (GraphPad) and were globally fitted to individual exponentials1 y=y0−y∞*e^−kobsx+y0 with the constraints that y0 (the value of the FP signal at t = 0) and y∞ (the value of the FP signal at t = ∞) are shared for all concentrations of PARPi. […] We emphasize that the same correction is applied to the data for all PARPi."}, "PARP2": {"target": "T2, PARP2 (Homo sapiens, UniProt Q9UGN5)", "T2 construct": "Wild-type PARP1 and PARP2 were expressed and purified as previously described; made in house", "T2 sequence (Q9UGN5 whole entry)": "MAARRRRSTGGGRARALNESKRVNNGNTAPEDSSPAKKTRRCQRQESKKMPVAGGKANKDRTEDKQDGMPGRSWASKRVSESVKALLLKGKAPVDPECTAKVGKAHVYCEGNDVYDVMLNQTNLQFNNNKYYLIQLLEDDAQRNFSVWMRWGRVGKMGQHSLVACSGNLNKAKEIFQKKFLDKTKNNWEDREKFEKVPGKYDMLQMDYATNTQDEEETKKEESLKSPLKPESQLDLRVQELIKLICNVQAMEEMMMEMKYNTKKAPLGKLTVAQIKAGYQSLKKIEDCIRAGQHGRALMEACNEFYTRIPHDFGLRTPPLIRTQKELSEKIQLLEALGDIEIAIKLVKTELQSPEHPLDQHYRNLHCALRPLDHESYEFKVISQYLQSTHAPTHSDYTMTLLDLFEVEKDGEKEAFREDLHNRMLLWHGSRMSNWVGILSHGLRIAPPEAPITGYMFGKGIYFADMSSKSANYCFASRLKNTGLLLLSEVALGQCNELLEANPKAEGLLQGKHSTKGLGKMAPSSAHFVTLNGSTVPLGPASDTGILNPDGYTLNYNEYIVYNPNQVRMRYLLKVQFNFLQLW", "experiment": "Rate of autoPARylation k2[NAD+] (DNA release without PARPi) in presence or absence of HPF1", "type": "biochemical", "experimental": "as §1"}, "[1]": {"target": "PARP1 - Nuc165 / PARP1 - p18mer complex (Homo sapiens, UniProt P09874)", "sequence (P09874 whole entry)": "as the sequence (P09874 whole entry) above", "sequence (Q9NWY4 whole entry partner)": "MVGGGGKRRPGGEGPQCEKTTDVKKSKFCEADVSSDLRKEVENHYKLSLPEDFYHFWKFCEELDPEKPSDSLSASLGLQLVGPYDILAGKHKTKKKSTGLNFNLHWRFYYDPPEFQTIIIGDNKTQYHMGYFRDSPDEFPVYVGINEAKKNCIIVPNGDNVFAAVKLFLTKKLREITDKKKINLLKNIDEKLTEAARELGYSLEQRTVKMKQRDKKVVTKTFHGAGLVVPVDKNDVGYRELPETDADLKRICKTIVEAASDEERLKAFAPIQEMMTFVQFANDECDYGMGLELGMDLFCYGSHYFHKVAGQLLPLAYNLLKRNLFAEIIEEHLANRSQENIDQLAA", "experiment": "FRET assay of Alexa647-HPF1 binding to Alexa488-PARP1 with p18mer DNA or Nuc165, with or without olaparib", "details": "for Kd: read-out: KD of HPF1", "experimental": "Excess unincorporated dye from PARP1 was removed by gel filtration chromatography (S-200). The extent of labeling, defined as the ratio of the molar concentration of dye vs. protein, was determined by UV-Vis spectroscopy and was typically 50–100%. […] All concentrations reflect final concentrations in the plate and all samples were diluted in binding buffer. […] Raw fluorescence intensity values were used to correct the FRET signal for the donor bleed-through and for the acceptor direct excitation, as previously described[43]."}},
  "note": "Values joined by “and” are separate entries in the source; they are usually repeats but may differ in a detail not shown here. Equal values may be shown once. “Also recorded” adds a separate entry of the source. Read-outs that look alike come from different tables or passages of the source.",
  "data": [
    {"molecule": "B1", "values": [
      {"measurement": "kobs (individual replicates)", "setting": "PARP1; PARP1 +HPF1, no PARPi", "result": "0.019 and 0.025 and 0.031"},
      {"measurement": "kobs(+HPF1)", "setting": "PARP1; PARP1, no PARPi, 2 mM NAD+", "result": "0.025 ± 0.006", "unit": "s⁻¹"},
      {"measurement": "kobs", "setting": "PARP2; PARP2 + HPF1, replicate fits of the fluorescence polarization time traces (time in s) of sheet SuppFig4CD", "result": "0.09827 and 0.07689 and 0.09446"},
      {"measurement": "kobs(+HPF1)", "setting": "PARP2; PARP2, no PARPi, 2 mM NAD+", "result": "0.090 ± 0.011", "unit": "s⁻¹"},
      {"measurement": "factor tighter binding to PARP1—Nuc165 than to PARP1—p18mer", "setting": "[1]; no olaparib", "result": 5},
      {"measurement": "Kd", "setting": "[1]; PARP1 – p18mer complex, in the presence of olaparib (1 µM)", "result": "1200 ± 500", "unit": "nM"},
      {"measurement": "Kd", "setting": "[1]; PARP1—Nuc165 complex, in the presence of olaparib (1 µM)", "result": "229 ± 55", "unit": "nM"},
      {"measurement": "Kd", "setting": "[1]; PARP1—Nuc165 complex, no olaparib", "result": "790 ± 147", "unit": "nM"}
    ]},
    {"molecule": "B2", "values": [
      {"measurement": "binding to PARP1 – Nuc165 complex", "setting": "[1]; FRET", "result": "does not bind; also recorded: failed to bind"}
    ]}
  ]
}
